Non-standard residues stand in square brackets, D forms with d. Tyr(3-NO2) = N[C@@H](Cc1ccc(O)c([N+](=O)[O-])c1)C(=O)O
Tests used:
PKG-1α [1] = experiment: PKG catalytic activity, Michaelis-Menten kinetics for cGMP; format: biochemical, human; details: ATP 125 μM, cGMP 0-10 μM; + SIN1 = SIN-1 500 μM, 30 min
Description: Total PKG activity was determined using a non-radioactive immunoassay in cell lysates, according to the manufacturer's directions. Briefly, protein samples were diluted in kinase reaction buffer containing Mg^2+ and ATP (125 μM) in the presence or absence of 8-Br cGMP (10 μM) and incubated in a 96 well plate pre-coated with a PKG substrate containing threonine residues phosphorylated by PKG.
After incubation for 30 min at 30° C. to allow the phosphorylation of the bound substrate, an HRP conjugated anti-phosphothreonine specific antibody was added to convert a chromogenic substrate to a colorimetric substrate that was subsequently read spectrophotometrically at 450 nm. The change in absorbance reflected the relative activity of PKG in the sample. The results were reported as pmols of phosphate incorporated into the GST-G substrate fusion protein by active PKG in the sample in the presence or absence of cGMP (10 μM) per minute at 30° C. per μg of protein (pmol/min/μg). […] The kinetic constants were determined using nonlinear regression (curve fit) analysis (GraphPad Prism Software Inc.).
To determine the Michaelis-Menten constant (Km) for cGMP, the kinase assay was performed, as mentioned above; however, the cGMP concentration was titrated from 0-10 μM, while the ATP concentration remained constant at 125 μM.

PKG-1α [2] = experiment: [3H]cGMP binding assay on immunopurified PKG-1α; parameters: species or system human; details: [3H]cGMP 0-200 nM, 100 ng immunopurified enzyme; average affinity of the two cGMP-binding sites; + SIN1 = cells exposed to SIN-1 500 μM, 30 min
Description: HEK-293T cells were transiently transfected with either the WT-PKG-1α or the Y247FPKG-1α cDNA using Effectene transfection reagent (Qiagen), according to the manufacturer's instructions. Briefly, the cells were split the day before the transfection to low cell densities (25%) and were transfected 24 h later. After 48 h of transfection, the cells were incubated in DMEM serum free media containing 1% FBS and antibiotics for 4 h and then treated with or without SIN-1 (500 μM), for 30 min. This method produced an approximate 70% transfection efficiency of HEK-293T cells, as measured using green fluorescent protein vectors. […]
The batches of supernatant were pooled, and 2 μg of anti-PKG-1α antibody per mg of protein were added to the extract and rocked at 4° C. […] After 15 min of agitation at 4° C., the beads were pelleted by centrifugation, and the supernatant containing the PKG-1α protein was collected, quantified using Bradford reagent, and stored at −80° C.
To assay the binding of cGMP to WT- and Y247F-PKG-1α the enzymes were saturated with cGMP by incubating 50 μl aliquots of the diluted PKG constructs for 60 min at room temperature with 50 μl of [^3H]cGMP and 150 μl of cGMP-binding assay mixture (25 mM K2HPO4, 25 mM KH2PO4, 1 mM EDTA, pH 6.8, 2M NaCl, 200 μM 3-isobutyl-1-methylxanthine). […] The dissociation constant (Kd) values were determined using GraphPad Prism graphics. […]

B1: WT-PKG-1α + SIN1: WT-PKG-1α immunopurified from cells exposed to SIN-1 (500 μM, 30 min) (protein)
chain: SELEEDFAKILMLKEERIKELEKRLSEKEEEIQELKRKLHKCQSVLPVPSTHIGPRTTRAQGISAEPQTYRSFHDLRQAFRKFTKSERSKDLIKEAILDNDFMKNLELSQIQEIVDCMYPVEYGKDSCIIKEGDVGSLVYVMEDGKVEVTKEGVKLCTMGPGKVFGELAILYNCTRTATVKTLVNVKLWAIDRQCFQTIMMRTGLIKHTEYMEFLKSVPTFQSLPEEILSKLADVLEETHYENGE[Tyr(3-NO2)]IIRQGARGDTFFIISKGTVNVTREDSPSEDPVFLRTLGKGDWFGEKALQGEDVRTANVIAAEAVTCLVIDRDSFKHLIGGLDDVSNKAYEDAEAKAKYEAEAAFFANLKLSDFNIIDTLGVGGFGRVELVQLKSEESKTFAMKILKKRHIVDTRQQEHIRSEKQIMQGAHSDFIVRLYRTFKDSKYLYMLMEACLGGELWTILRDRGSFEDSTTRFYTACVVEAFAYLHSKGIIYRDLKPENLILDHRGYAKLVDFGFAKKIGFGKKTWTFCGTPEYVAPEIILNKGHDISADYWSLGILMYELLTGSPPFSGPDPMKTYNIILRGIDMIEFPKKIAKNAANLIKKLCRDNPSERLGNLKNGVKDIQKHKWFEGFNWEGLRKGTLTPPIIPSVASPTDTSNFDSFPEDNDEPPPDDNSGWDIDF
In the case of B1, the Vmax (PKG-1α [1]) is reported as 0.28 ± 0.01 pmol/min/µg and the Kd (PKG-1α [2]) is reported as 32.1 ± 5.5 nM.
